Source: paper PMC2064105 (The Journal of Cell Biology, 2007)

Molecular target: T1, purified recombinant Kap121p (S. cerevisiae, UniProt P32337 1-1089)
T1 sequence (looked up): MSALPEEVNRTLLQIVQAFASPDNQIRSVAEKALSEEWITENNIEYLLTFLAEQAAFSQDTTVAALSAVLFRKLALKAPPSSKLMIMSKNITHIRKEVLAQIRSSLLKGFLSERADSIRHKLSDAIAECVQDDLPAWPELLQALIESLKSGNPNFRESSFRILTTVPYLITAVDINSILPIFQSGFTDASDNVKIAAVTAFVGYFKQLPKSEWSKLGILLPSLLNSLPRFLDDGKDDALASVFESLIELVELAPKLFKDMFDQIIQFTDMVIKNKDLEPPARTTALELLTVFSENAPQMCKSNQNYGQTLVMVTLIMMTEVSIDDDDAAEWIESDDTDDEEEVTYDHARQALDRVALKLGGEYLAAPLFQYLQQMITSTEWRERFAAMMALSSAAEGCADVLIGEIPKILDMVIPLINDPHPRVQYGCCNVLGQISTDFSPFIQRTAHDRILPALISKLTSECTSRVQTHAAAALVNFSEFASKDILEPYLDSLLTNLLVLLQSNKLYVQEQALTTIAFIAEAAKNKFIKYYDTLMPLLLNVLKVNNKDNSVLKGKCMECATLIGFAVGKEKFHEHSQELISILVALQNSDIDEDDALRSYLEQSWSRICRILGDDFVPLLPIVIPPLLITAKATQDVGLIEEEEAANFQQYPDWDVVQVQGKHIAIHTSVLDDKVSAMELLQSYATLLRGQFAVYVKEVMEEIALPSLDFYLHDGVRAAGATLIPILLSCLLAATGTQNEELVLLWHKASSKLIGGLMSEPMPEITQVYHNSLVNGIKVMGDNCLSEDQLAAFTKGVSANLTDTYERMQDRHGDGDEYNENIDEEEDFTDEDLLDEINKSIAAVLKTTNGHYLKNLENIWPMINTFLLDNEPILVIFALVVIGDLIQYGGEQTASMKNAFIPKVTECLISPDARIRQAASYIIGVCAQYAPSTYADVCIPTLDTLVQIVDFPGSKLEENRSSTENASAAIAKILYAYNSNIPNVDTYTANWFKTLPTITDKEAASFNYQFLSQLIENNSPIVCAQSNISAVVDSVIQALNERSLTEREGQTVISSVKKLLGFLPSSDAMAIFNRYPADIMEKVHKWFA
Experiment: pull-down

B1: purified recombinant Nup53p (natural protein, S. cerevisiae, UniProt Q03790 1-475, looked up)
chain: MADLQKQENSSRFTNVSVIAPESQGQHEQQKQQEQLEQQKQPTGLLKGLNGFPSAPQPLFMEDPPSTVSGELNDNPAWFNNPRKRAIPNSIIKRSNGQSLSPVRSDSADVPAFSNSNGFNNVTFGSKKDPRILKNVSPNDNNSANNNAHSSDLGTVVFDSNEAPPKTSLADWQKEDGIFSSKTDNIEDPNLSSNITFDGKPTATPSPFRPLEKTSRILNFFDKNTKTTPNTASSEASAGSKEGASTNWDDHAIIIFGYPETIANSIILHFANFGEILEDFRVIKDFKKLNSKNMSKSPSLTAQKYPIYTGDGWVKLTYKSELSKSRALQENGIIMNGTLIGCVSYSPAALKQLASLKKSEEIINNKTSSQTSLSSKDLSNYRKTEGIFEKAKAKAVTSKVRNAEFKVSKNSTSFKNPRRLEIKDGRSLFLRNRGKIHSGVLSSIESDLKKREQASKSKKSWLNRLNNWLFGWNDL
binding result: binds
